# From article PMC2885523
# Target: MP81, in vitro-synthesized, [35S]-labeled (T. brucei)
# Assay: co-IP
substance,measurement,value
"TbTUT4-MD (TbTUT4 TUTase with grafted RET2 middle domain), in vitro-synthesized, [35S]-labeled (from UniProt Q381M1;Q86MV5)",fold increase of immunoprecipitation on addition of MP81,2 fold
